Results as given in publication PMC4392246, “Structure of a BAG6 (Bcl-2-associated Athanogene 6)-Ubl4a (Ubiquitin-like Protein 4a) Complex Reveals a Novel Binding Interface That Functions in Tail-anchored Protein Biogenesis*” (The Journal of Biological Chemistry, 2015).
Substitutions are numbered along the chain they refer to.

What was measured:
[1] = target: T1, full-length Ubl4a (residues 1–157), recombinant (Homo sapiens, UniProt P11441 1-157); assay: SPR; BAGS domain (residues 1048-1123) immobilised on a CM5 chip by amine coupling; wild-type and mutant Ubl4a as analytes; 298 K; HBS-P (10 mM HEPES, 150 mM NaCl, 0.05% Surfactant P20, pH 7.2); 30 μl/min; two-state reaction model, overall dissociation constant; conditions: both partners purified
T1 construct: Ubl4a, Homo sapiens, residues 1-157; also called Ubl4a(1–157); full-length Ubl4a wild type; source: recombinant
T1 sequence (looked up): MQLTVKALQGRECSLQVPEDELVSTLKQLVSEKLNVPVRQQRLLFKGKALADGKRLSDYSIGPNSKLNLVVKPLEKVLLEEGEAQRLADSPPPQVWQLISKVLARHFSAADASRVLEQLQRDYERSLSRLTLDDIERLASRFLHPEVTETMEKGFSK

[2] = target: T2, full-length Ubl4a H106E mutant, recombinant (Homo sapiens, UniProt P11441 1-157, H106E); assay: as above; conditions: both partners purified
T2 construct: Ubl4a, Homo sapiens, 157 amino acids, with H106E; also called H106E Ubl4a; source: recombinant
T2 sequence (looked up): T1 sequence (looked up) with H106E

Kd [1]: 2.2 ± 0.5 nM | Kd [2]: 1600 ± 80 nM
B1: BAG6 BAGS domain (residues 1048–1123) (domain or fragment, human, UniProt P46379-2 1048-1123, looked up)
chain: MQGEGPQLLLSEAVSRAAKAAGARPLTSPESLSRDLEAPEVQESYRQQLRSDIQKRLQEDPNYSPQRFPNAQRAFA
notes: BAG6, C-terminal BAGS domain, residues 1048-1123; printed length of BAG6 1,126 residues; Removal of GST is told for the crystallised complex; also called BAG6(1048–1123)
